{"source": "paper PMC6237740", "experiment_in_all_cases": "fluorescence anisotropy competition", "key": {"[1]": {"tested_on": "Ets-1 ETS domain WT (Mus musculus)", "conditions": "normo-osmotic; 10 mM TrisHCl pH 7.4, 0.15 M NaCl, 0.1 mg/ml BSA, betaine to set osmolality (0.3 osm without stress); Cy3-DNA probe displaced by unlabeled DNA; binding …"}, "[2]": {"tested_on": "PU.1/Ets-1 wing chimera", "conditions": "10 mM TrisHCl pH 7.4, 0.15 M NaCl, 0.1 mg/ml BSA, betaine to set osmolality (0.3 osm without stress); Cy3-DNA probe displaced by unlabeled DNA; binding …"}, "[3]": {"tested_on": "PU.1 ETS domain WT (PU.1ΔN167)", "conditions": "10 mM TrisHCl pH 7.4, 0.15 M NaCl, 0.1 mg/ml BSA, betaine to set osmolality (0.3 osm without stress), Cy3-DNA probe displaced by unlabeled DNA"}, "[4]": {"tested_on": "PU.1/Ets-1 S3 chimera", "conditions": "0.1 mg/ml BSA, betaine to set osmolality (0.3 osm without stress), Cy3-DNA probe displaced by unlabeled DNA"}, "[5]": {"tested_on": "PU.1/Ets-1 H2 chimera", "conditions": "10 mM TrisHCl pH 7.4, 0.15 M NaCl, 0.1 mg/ml BSA, betaine to set osmolality (0.3 osm without stress); Cy3-DNA probe displaced by unlabeled DNA; binding …"}, "[6]": {"tested_on": "PU.1/Ets-1 loop chimera", "conditions": "10 mM TrisHCl pH 7.4, 0.15 M NaCl, 0.1 mg/ml BSA, betaine to set osmolality (0.3 osm without stress); Cy3-DNA probe displaced by unlabeled DNA; binding …"}, "[7]": {"tested_on": "PU.1/Ets-1 H3 chimera", "conditions": "10 mM TrisHCl pH 7.4, 0.15 M NaCl, 0.1 mg/ml BSA, betaine to set osmolality (0.3 osm without stress); Cy3-DNA probe displaced by unlabeled DNA; binding …"}}}
{"substance": "SC1 optimal Ets-1 site", "values": [{"measurement": "Kd", "setting": "[1]", "result": 0.17, "unit": "nM"}]}
{"substance": "AGC high-affinity PU.1 site, 23-bp duplex", "values": [{"measurement": "Kd", "setting": "[2]", "result": 1.6, "unit": "nM"}, {"measurement": "Kd", "setting": "[1]", "result": 0.6, "unit": "nM"}, {"measurement": "Kd", "setting": "[3]; binding …", "result": 0.34, "unit": "nM"}, {"measurement": "Kd", "setting": "[4]; 10 mM TrisHCl pH 7.4, 0.15 M NaCl, binding …", "result": 0.49, "unit": "nM"}, {"measurement": "Kd", "setting": "[5]", "result": 0.8, "unit": "nM"}, {"measurement": "Kd", "setting": "[6]", "result": 1.3, "unit": "nM"}, {"measurement": "Kd", "setting": "[7]", "result": 22, "unit": "nM"}]}
{"substance": "low-affinity PU.1 site, 23-bp duplex", "values": [{"measurement": "binding signal", "setting": "[3]; may replot earlier WT data, scale: fold affinity vs S3 chimera on the same low-affinity DNA", "result": 0.2}, {"measurement": "binding signal", "setting": "[4]; weaker than S3 chimera on N1, 10 mM TrisHCl pH 7.4, 0.15 M NaCl, scale: fold stronger than WT PU.1 on the same low-affinity DNA", "result": 5}]}
